The values below come from patent US20170189524A1 (IMMUNOQURE, published 2017).

The chains are these.
B3: recombinant human IL-20 (ligand, UniProt Q9NYY1 25-176, looked up)
chain: LKTLNLGSCVIATNLQEIRNGFSEIRGSVQAKDGNIDIRILRRTESLQDTKPANRCCLLRHLLRLYLDRVFKNYQTPDHYTLRKISSLANSFLTIKKDLRLCHAHMTCHCGEEAMKKYSQILSHFEKLEPQAAVVKALGELDILLQWMEETE
notes: also called rhIL-20; hIL-20
B4: recombinant mouse IL-20 (ligand, UniProt Q9JKV9 25-176, looked up)
chain: LKTLHLGSCVITANLQAIQKEFSEIRDSVQAEDTNIDIRILRTTESLKDIKSLDRCCFLRHLVRFYLDRVFKVYQTPDHHTLRKISSLANSFLIIKKDLSVCHSHMACHCGEEAMEKYNQILSHFIELELQAAVVKALGELGILLRWMEEML
notes: also called rmIL-20; murine IL-20

Experiment [1] addresses T1, g1 IFNW (fusion protein of human IFNW with Gaussia luciferase) (human, UniProt P05000 22-195).
T1 construct: also called IFNW-Gaussia luciferase; human IFNW-Gaussia luciferase fusion protein; not shown: Gaussia luciferase
The experiment is described as follows: LCBA cross-competition, g1 IFNW preincubated with soluble antibody (FIG. 18).

Experiment [2] addresses T2, Type I IL-20 receptor (IL-20RA/IL-20RB) on transfected HEK 293T MSR cells (human, UniProt Q9UHF4 30-553; Q6UXL0 30-311).
T2 construct: whole, on cells; also called IL-20 receptor Type I; IL20RA-Myc-DDK and IL20RB-Myc-DDK; not shown: Myc-DDK tag
T2 sequence (looked up) 1: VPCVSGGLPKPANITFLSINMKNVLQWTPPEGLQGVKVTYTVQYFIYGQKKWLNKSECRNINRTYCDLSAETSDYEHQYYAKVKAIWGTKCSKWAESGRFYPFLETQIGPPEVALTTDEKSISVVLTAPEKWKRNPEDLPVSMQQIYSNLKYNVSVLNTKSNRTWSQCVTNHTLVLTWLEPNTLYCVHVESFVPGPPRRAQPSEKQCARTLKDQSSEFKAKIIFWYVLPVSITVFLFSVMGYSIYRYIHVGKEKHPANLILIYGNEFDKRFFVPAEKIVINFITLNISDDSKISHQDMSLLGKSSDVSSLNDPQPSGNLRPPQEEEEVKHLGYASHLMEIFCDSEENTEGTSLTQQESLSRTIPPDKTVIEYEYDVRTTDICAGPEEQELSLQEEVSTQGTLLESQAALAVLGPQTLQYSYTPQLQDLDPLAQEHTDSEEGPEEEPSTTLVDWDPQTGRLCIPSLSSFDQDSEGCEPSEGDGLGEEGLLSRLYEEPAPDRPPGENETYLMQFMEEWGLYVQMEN
T2 sequence (looked up) 2: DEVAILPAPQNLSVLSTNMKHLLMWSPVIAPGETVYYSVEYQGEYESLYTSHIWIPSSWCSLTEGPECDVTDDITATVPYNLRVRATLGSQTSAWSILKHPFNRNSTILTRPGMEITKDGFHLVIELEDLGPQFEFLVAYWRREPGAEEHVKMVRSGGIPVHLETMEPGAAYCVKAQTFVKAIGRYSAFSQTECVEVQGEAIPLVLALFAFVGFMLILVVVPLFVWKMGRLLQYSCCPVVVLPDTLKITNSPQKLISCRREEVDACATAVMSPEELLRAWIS
The experiment is described as follows: LCBA, competition with g1 IL-20 on cells expressing Type I IL-20 receptor.

Experiment [3] has as its target T2, Type I IL-20 receptor (IL-20RA/IL-20RB) …. Nature of the experiment: LCBA, competition with g1 IL-20 (FIG. 7E).
The target of experiment [4] is T3, g1 IL-20 (fusion protein of human IL-20 with Gaussia luciferase at the IL-20 N-terminus) (human, UniProt Q9NYY1 25-176).
T3 construct: also called IL-20-Gaussia luciferase fusion protein; GLuc-IL-20; not shown: Gaussia luciferase (pGaussia1 vector)
T3 sequence (looked up): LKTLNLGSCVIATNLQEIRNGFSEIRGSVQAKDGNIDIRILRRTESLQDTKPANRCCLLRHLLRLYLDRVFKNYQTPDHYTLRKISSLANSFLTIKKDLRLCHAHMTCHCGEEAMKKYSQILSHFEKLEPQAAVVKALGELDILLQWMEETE
Nature of the experiment: GLuc-sandwich ELISA.

The target in experiment [5] is T4, g2 IL-20 (fusion protein of human IL-20 fused C-terminally to Gaussia luciferase) (human, UniProt Q9NYY1 25-176).
T4 construct: order of the parts inferred from 'fused; C-terminally (g2 IL-20) to Gaussia luciferase'; the wording is ambiguous; also called GLuc-IL-20; not shown: Gaussia luciferase
T4 sequence (looked up): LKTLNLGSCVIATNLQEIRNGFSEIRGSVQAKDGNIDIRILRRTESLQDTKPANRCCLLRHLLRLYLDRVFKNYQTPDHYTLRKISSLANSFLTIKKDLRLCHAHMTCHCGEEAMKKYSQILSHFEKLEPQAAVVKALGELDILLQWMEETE
Nature of the experiment: GLuc-sandwich ELISA, fusion protein captured by anti-GLuc antibody, serial dilution of MAB.

For experiment [6], the target named is T3, g1 IL-20 (fusion protein of human IL-20 …). The experiment is described as above.
The target of the experiment “recombinant human IL-20” is B3. Nature of the experiment: cell-based or functional assay.
The target of experiment [7] is B4. Nature of the experiment: cell-based or functional assay.
The target of experiment [8] is T5, peptide 20 of human IL-20, 101-PDHYTLRKISSLANSFLT-118 (human).
T5 construct: spotted on a glass microarray through a hydrophilic linker; also called human IL-20 101-118-peptide
T5 peptide: PDHYTLRKISSLANSFLT
Nature of the experiment: 18mer peptide microarray of human IL-20, Cy5 anti-human IgG detection.

Experiment [9] addresses T6, corresponding 18mer peptide derived from mouse IL-20 (differs from the human IL-20 101-118-peptide at Y104H … (mouse)).
T6 construct: also called corresponding peptide derived from mouse IL-20
T6 peptide: PDHHTLRKISSLANSFLI
The experiment is described as follows: 18mer peptide microarray of murine IL-20.

Experiment [10] concerns the target T3, g1 IL-20 (fusion protein of human IL-20 …). Nature of the experiment: chemiluminescent cell-binding assay (FIG. 8D): inhibition of g1 IL-20 binding to HEK 293T MSR cells expressing IL-20 receptor; receptor type for this value not stated.
Experiment [11] has as its target T7, peptide 19 of human IL-20, NYQTPDHYTLRKISSLAN (human).
T7 construct: spotted on a glass microarray through a hydrophilic linker
T7 peptide: NYQTPDHYTLRKISSLAN
Nature of the experiment: 18mer peptide microarray of human IL-20.

Experiment [12] has as its target B4. The experiment is described as follows: competition GLuc-sandwich ELISA: soluble mouse IL-20 titrated against antibody 1 µg/ml on captured g2 IL-20.

T1 sequence (P05000 22-195): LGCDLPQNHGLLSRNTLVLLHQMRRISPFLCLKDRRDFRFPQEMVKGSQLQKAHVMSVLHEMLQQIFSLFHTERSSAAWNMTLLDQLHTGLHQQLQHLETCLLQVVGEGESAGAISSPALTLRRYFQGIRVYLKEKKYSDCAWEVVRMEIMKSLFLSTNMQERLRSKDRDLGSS

B1: antibody 26B9 (soluble) (antibody, human IgG1, kappa, V domains shown)
VH: QILLQESGPGLVKPTETLSLTCSVSGDSISDSSHYWAWIRQPPGKGPEWIGSVYFSSMTHYNPSLKSRVSISVDKPKNQFSLKVTSVTVADTATYYCARQALARVGAMNWFDPWGQGSLVTVSS
VL: DIIMTQSPDSLPVSLGEGVTINCKSSQSVFFTSSNKSCLAWYQQKPGKSPKLLIYWASTRQSGVPDRFRGSGSGTDFSLTITSLQAEDVAVYFCQQCQTSPPTFGGGTRLEIKR
notes: IgG1, kappa; also called soluble 26B9
B1: in [1], the binding result is listed as “binds”.

B2: antibody 31B4 (antibody, human IgG1, kappa, V domains shown)
VH: QIQLQESGPGLVRPTETLSLTCSVSGDSISQSSHYWAWIRQPPGKGPEWIGSVYFSSMTHYNPSLTSRVSISIDKAMNKFSLKVTSVTVADTATYYCARQALARVGAMNWFDPWGQGSLVTVSS
VL: DIIMTQSPESLPVSLGEGVTINCKSSQSVFFTSSNRSCLAWYQQKPGQSPKLLIYWASTRQSGVPDRFTGSGSGTDFSLTIAGLQVEDVAVYFCQQCHASPPTFGGGTRLELRR
notes: IgG1, kappa; clonally related to 26B9
Consider B2, for which, in experiment [1], the binding result is on record as “binds”.

Consider B3, for which the binding result in [2] is “binds”.

Consider B4, for which, in [3], the binding result is “binds”.

B5: antibody 7D1 (antibody, human IgG1, lambda, V domains shown)
VH: EVQLVASGGDFIQPGRSLRLSCAASGFKFDDYAMFWVRQVPGRGLEWVSGISWSSDKMAYVDSVKGRFTISRDNAKNTLYLQMNNLRPDDTAFYYCAKGGFSSVWNYFDFWGQGTLVTVSS
VL: QSVLTQPPSASGTPGQTVIISCSGTTSNIGSNTVSWYRQLPGAAPKLLIFTYNQRPSGVPDRFSGSKSGTSASLAISGLQSDDEADYYCAVWDDALGGWVFGGGTKLTVLG
notes: IgG1, lambda; also called MAb 7D1
Turning to B5, the EC50 in experiment [4] was above 5 mg/L; in experiment [5] it was 0.0271 mg/L; in experiment [6], 5.87 mg/L.

B6: antibody 20A10 (antibody, human IgG4, kappa, V domains shown)
VH: QVQLVQSGAEVKKPGSSVKVSCKTSGGTFSTSTLSWVRQAPGQGLEWLGGMIPILSRTTYAQKFQGRLTITADEPTSTSYMELSSLKSEDTAVYYCATEGEVSAAHNYYYGMDVWGQGTTVTVSS
VL: DIVLTQSPLYLPVTPGEPASISCRSSQSLLHGNGHNYLDWYLQKPGQSPQLLIYLGSNRASGVPDRFSGSGSGTDFTLKISRVEAEDVGVYYCMQTLHTVFTFGPGTRVDIKR
notes: Recombinant human-derived antibody; also called MAb 20A10; 20A0
Turning to B6, the “IC 50 in the KZ136-NLuc reporter assay” value with recombinant human IL-20 amounted to 0.33 mg/L. In the experiment with recombinant mouse IL-20 [7], the “IC 50 in the pSTAT3 Western blot assay (25 ng/ml rmIL-20, Type I IL-20 receptor)” value was 1870 ng/ml. Further, the binding result is reported as “binds” in experiment [8], “no binding” in experiment [9] and “no binding” in experiment [11]. In addition, the EC50 in experiment [5] came out at 0.021 mg/L; in [6], 0.0186 mg/L. In experiment [10], the IC50 was 0.00403 mg/L.

B7: antibody 2A11 (antibody, IgG1, V domains shown)
VH: QVHLVQSGAEVKKPGSSVKVSCKASGGTFNNFPMSWVRQAPGRGLEWMAGIIPVFGSANYAQQFHGRVTISADISTSTVSMELNDLKSEDTGVYYCAISGDEDNWIMNFWGQGTLVTVSS
VL: QSLLTQPPSVSGAPGQRVTISCTGSSSNIGAGYDVHWYQQVPGTAPKLLIYGNRNRPSGVPDRFSGSKSGTSASLAITGLQAEDEADYYCQSYDSSLSGHAVFGGGTKVTVLR
notes: IgG1, lambda; also called MAb 2A11
In the case of B7, the EC50 in [5] stood at 0.0065 mg/L; in experiment [6] it was 0.0098 mg/L.

B8: antibody 6E11 (antibody, IgG1, V domains shown)
VH: QVQLVQSGAEVKKPGSSVKVSCKASGGTFRNYAINWVRQAPRQGLEWMGSLVPMFTSPTYAQKFRGRVTISADESTATSSMELTSLTSEDTAVYFCSADGYKGGLFYGMNVWGQGTTVTVSS
VL: DIVLTQSPESLAVSLGERATINCKSSQSVLYSSNSKNYLAWFQQKPGQPPKLLIYWASTRESGVPDRFSGSGSGTDFTLTITSLQAEDVAVYYCHQYHTLPRTFGHGTKVEIKR
notes: IgG1; also called MAb 6E11
In the case of B8, the results for the EC50 in experiment [5] and in experiment [6] were 0.347 mg/L and 0.128 mg/L, respectively. For the same molecule, in the experiment with recombinant mouse IL-20 [12], the binding result is listed as “no binding (tested: 10 µg/ml to 4.6 ng/ml)”.
